Tests used:
[1] = target: T1, Ku70 peptide 29 (amino acids 541-562)
T1 chain: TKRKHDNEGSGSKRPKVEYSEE

[2] = target: recombinant Ku70/80 complex, P13010
[3] = target: T2, peptide 29 variant that retained K542 (KRRR)
T2 chain: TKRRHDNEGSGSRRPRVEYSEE

[4] = target: T3, peptide 29 variant that retained K553 (RRKR)
T3 chain: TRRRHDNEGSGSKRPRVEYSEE

[5] = target: T4, Ku70 peptide 16 (amino acids 325-341)
T4 chain: RQIILEKEETEELKRFD

[6] = target: T5, Ku70 peptide 3 (amino acids 44-58)
T5 chain: ASKAMFESQSEDELT

[7] = target: T6, Ku70 peptide 8 (amino acids 157-173)
T6 chain: VQFKMSHKRIMLFTNED

[8] = target: T7, Ku70 peptide 15 (amino acids 310-322)
T7 chain: LLLPSDTKRSQIY

[9] = target: T8, acetylated Ku70 K542 peptide PEGKVTK-AcRKHDNC
T8 chain: PEGKVTKRKHDNC

[10] = target: T9, acetylated Ku70 K539 peptide DYNPEGK-AcVTKRKC
T9 chain: DYNPEGKVTKRKC

[11] = target: acetylated Ku70-K331 peptide

recombinant Ku70/80 complex, P13010, sequence (chain, as listed by the source, chain 1 of 2): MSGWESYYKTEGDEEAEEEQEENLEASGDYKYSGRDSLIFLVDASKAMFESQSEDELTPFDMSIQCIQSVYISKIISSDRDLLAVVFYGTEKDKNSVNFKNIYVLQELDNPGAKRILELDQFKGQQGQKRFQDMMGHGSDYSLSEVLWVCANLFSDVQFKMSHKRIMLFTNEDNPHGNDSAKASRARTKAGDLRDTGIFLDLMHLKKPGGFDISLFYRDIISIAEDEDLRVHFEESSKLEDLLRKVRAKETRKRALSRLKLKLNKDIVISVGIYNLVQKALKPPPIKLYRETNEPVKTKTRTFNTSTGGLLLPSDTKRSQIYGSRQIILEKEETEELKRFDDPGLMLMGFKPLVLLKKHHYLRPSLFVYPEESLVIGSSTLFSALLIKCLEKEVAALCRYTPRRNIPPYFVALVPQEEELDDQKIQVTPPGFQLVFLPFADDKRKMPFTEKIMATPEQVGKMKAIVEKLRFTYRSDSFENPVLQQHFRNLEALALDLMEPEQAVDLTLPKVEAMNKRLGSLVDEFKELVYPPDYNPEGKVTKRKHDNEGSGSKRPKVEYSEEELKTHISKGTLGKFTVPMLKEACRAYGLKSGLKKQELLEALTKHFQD
recombinant Ku70/80 complex, P13010, sequence (P13010 whole entry, chain 2 of 2): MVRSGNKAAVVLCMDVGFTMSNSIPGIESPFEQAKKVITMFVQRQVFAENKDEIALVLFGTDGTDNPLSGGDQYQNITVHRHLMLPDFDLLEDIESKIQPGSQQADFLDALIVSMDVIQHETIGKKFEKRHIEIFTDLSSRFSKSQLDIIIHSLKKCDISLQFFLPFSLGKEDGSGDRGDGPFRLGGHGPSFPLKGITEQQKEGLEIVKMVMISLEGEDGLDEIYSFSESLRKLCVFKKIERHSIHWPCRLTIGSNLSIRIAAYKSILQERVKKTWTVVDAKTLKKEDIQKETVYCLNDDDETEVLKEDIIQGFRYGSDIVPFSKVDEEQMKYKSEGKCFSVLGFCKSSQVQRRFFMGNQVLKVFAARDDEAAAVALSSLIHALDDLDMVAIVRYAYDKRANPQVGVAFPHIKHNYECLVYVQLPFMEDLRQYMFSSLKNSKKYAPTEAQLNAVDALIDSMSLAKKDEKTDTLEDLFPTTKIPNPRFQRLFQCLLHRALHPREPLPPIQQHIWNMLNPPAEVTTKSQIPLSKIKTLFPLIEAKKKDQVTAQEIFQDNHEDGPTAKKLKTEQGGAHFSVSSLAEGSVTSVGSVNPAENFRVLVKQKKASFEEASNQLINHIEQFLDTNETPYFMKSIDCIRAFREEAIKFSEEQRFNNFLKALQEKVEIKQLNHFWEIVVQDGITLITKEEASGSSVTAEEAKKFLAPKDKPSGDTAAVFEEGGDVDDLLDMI

B1: recombinant histone acetyltransferase (HAT) domain of CBP (protein)
chain: LEALYRQDPESLPFRQPVDPQLLGIPDYFDIVKNPMDLSTIKRKLDTGQYQEPWQYVDDVWLMFNNAWLYNRKTSRVYKFCSKLAEVFEQEIDPVMQSLGYCCGRKYEFSPQTLCCYGKQLCTIPRDAAYYSYQNRYHFCEKCFTEIQGENVTLGDDPSQPQTTISKDQFEKKKNDTLDPEPFVDCKECGRKMHQICVLHYDIIWPSGFVCDNCLKKTGRPRKENKFSAKRLQTTRLGNHLEDRVNKFLRRQNHPEAGEVFVRVVASSDKTVEVKPGMKSRFVDSGEMSESFPYRTKALFAFEEIDGVDVCFFGMHVQEYGSDCPPPNTRRVYISYLDSIHFFRPRCLRTAVYHEILIGYLEYVKKLGYVTGHIWACPPSEGDDYIFHCHPPDQKIPKPKRLQEWYKKMLDKAFAERIIHDYKDIFKQATEDRLTSAKELPYFEGDFWPNVLEESIKELEQEEEERKKEESTAASETTEGSQGDSKNAKKKNNKKTNKNKSSISRANKKKPSMPNVSNDLSQKLYATMEKHKEVFFVIHLHAGPVINTLPPIVDPDPLLSCDLMDGRDAFLTLARDKHWEFSSLRRSKWSTLCMLVELHTQGQDRFVYTCNECKHHVETRWHCTVCEDYDLCINCYNTKSHAHKMVKWGLGLDDEGSSQGE
[1]
  in vitro acetylation of Ku70 peptides: only two (16 and 29) were strongly acetylated by both PCAF and CBP
[2]
  in vitro acetylation (3H-acetyl-CoA, SDS-PAGE, autoradiography): a strongly labeled band corresponding to the size of Ku70 was observed in each of the complete acetyltransferase reactions; Based on the intensity of the bands, CBP has the strongest preference for Ku70
[3]
  in vitro acetylation of peptide 29 variants: the peptide that retained K542 (KRRR) was the preferred target of both PCAF and CBP and was acetylated to almost the same extent as the original peptide 29 (KKKK)
[4]
  in vitro acetylation of peptide 29 variants: K553 (RRKR) was also weakly acetylated by PCAF and CBP
[5]
  in vitro acetylation of Ku70 peptides: only two (16 and 29) were strongly acetylated by both PCAF and CBP

B2: recombinant histone acetyltransferase (HAT) domain of PCAF (protein)
chain: MLEEEVYSQNSPIWDQDFLSASSRTSQLGIQTVINPPPVAGTISYNSTSSSLEQPNAGSSSPACKASSGLEANPGEKRKMTDSHVLEEAKKPRVMGDIPMELINEVMSTITDPAAMLGPETNFLSAHSARDEAARLEERRGVIEFHVVGNSLNQKPNKKILMWLVGLQNVFSHQLPRMPKEYITRLVFDPKHKTLALIKDGRVIGGICFRMFPSQGFTEIVFCAVTSNEQVKGYGTHLMNHLKEYHIKHDILNFLTYADEYAIGYFKKQGFSKEIKIPKTKYVGYIKDYEGATLMGCELNPRIPYTEFSVIIKKQKEIIKKLIERKQAQIRKVYPGLSCFKDGVRQIPIESIPGIRETGWKPSGKEKSKEPRDPDQLYSTLKSILQQVKSHQSAWPFMEPVKRTEAPGYYEVIRFPMDLKTMSERLKNRYYVSKKLFMADLQRVFTNCKEYNPPESEYYKCANILEKFFFSKIKEAGLIDK
[1]
  Relative Intensity of Acetylation: +++++
[6]
  Relative Intensity of Acetylation: +
[7]
  Relative Intensity of Acetylation: ++
[2]
  in vitro acetylation (3H-acetyl-CoA, SDS-PAGE, autoradiography): a strongly labeled band corresponding to the size of Ku70 was observed in each of the complete acetyltransferase reactions
[8]
  Relative Intensity of Acetylation: +++
[3]
  in vitro acetylation of peptide 29 variants: the peptide that retained K542 (KRRR) was the preferred target of both PCAF and CBP and was acetylated to almost the same extent as the original peptide 29 (KKKK)
[4]
  in vitro acetylation of peptide 29 variants: K553 (RRKR) was also weakly acetylated by PCAF and CBP
[5]
  Relative Intensity of Acetylation: +++

B3: human SIRT1 (protein)
chain: MADEAALALQPGGSPSAAGADREAASSPAGEPLRKRPRRDGPGLERSPGEPGGAAPEREVPAAARGCPGAAAAALWREAEAEAAAAGGEQEAQATAAAGEGDNGPGLQGPSREPPLADNLYDEDDDDEGEEEEEAAAAAIGYRDNLLFGDEIITNGFHSCESDEEDRASHASSSDWTPRPRIGPYTFVQQHLMIGTDPRTILKDLLPETIPPPELDDMTLWQIVINILSEPPKRKKRKDINTIEDAVKLLQECKKIIVLTGAGVSVSCGIPDFRSRDGIYARLAVDFPDLPDPQAMFDIEYFRKDPRPFFKFAKEIYPGQFQPSLCHKFIALSDKEGKLLRNYTQNIDTLEQVAGIQRIIQCHGSFATASCLICKYKVDCEAVRGDIFNQVVPRCPRCPADEPLAIMKPEIVFFGENLPEQFHRAMKYDKDEVDLLIVIGSSLKVRPVALIPSSIPHEVPQILINREPLPHLHFDVELLGDCDVIINELCHRLGGEYAKLCCNPVKLSEITEKPPRTQKELAYLSELPPTPLHVSEDSSSPERTSPPDSSVIVTLLDQAAKSNDDLDVSESKGCMEEKPQEVQTSRNVESIAEQMENPDLKNVGSSTGEKNERTSVAGTVRKCWPNRVAKEQISRRLDGNQYLFLPPNRYIFHGAEVYSDSEDDVLSSSSCGSNSDSGTCQSPSLEEPMEDESEIEEFYNGLEDEPDVPERAGGAGFGTDGDDQEAINEAISVKQEVTDMNYPSNKS
[9]
  deacetylation of acetylated Ku70 peptide by recombinant SIRT1 (slot blot with pan-acetyl-lysine antibody; fluorogenic peptide assay): SIRT1 efficiently deacetylated the two lysines in the C-terminus of Ku70 that are critical for regulating Bax
[10]
  deacetylation of acetylated Ku70 peptide by recombinant SIRT1 (slot blot with pan-acetyl-lysine antibody; fluorogenic peptide assay): SIRT1 efficiently deacetylated the two lysines in the C-terminus of Ku70 that are critical for regulating Bax
[11]
  deacetylation of acetylated Ku70 peptide by SIRT1: this residue is acetylated in vivo, but is both a poor substrate of SIRT1 (FIG. 8D) and plays no apparent role in Bax-mediated apoptosis in vivo

B4: recombinant histone acetyltransferase (HAT) domain of p300 (protein)
chain: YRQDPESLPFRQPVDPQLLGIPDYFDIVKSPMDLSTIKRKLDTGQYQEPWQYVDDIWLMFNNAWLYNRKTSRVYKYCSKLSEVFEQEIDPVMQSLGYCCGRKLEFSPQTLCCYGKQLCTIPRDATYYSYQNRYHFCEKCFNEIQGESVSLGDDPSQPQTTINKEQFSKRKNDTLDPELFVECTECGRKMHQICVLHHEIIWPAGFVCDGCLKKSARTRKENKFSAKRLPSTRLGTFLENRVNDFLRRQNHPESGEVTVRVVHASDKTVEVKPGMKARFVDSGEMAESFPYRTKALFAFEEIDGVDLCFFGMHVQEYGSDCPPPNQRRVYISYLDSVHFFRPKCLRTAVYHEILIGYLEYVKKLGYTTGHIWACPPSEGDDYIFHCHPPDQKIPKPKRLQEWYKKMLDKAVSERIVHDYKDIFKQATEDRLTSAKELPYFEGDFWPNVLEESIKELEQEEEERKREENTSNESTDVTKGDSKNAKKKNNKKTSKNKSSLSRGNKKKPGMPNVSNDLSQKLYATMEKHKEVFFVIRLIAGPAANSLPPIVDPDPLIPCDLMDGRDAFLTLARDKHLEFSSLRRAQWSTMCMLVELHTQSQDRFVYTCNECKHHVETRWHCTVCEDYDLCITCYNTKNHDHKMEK
[2]
  in vitro acetylation (3H-acetyl-CoA, SDS-PAGE, autoradiography): a strongly labeled band corresponding to the size of Ku70 was observed in each of the complete acetyltransferase reactions

Reference: US20060084085
